Results on two molecules are retold here after PMC12572175, “A synergistic generative-ranking framework for tailored design of therapeutic single-domain antibodies” (Cell Discovery, 2025).

This test deals with T1, Recombinant human TNFα (Homo sapiens, UniProt P01375).
T1 construct: human TNFα, residues 77-233 of GenBank AAA61198.1, behind an N-terminal signal peptide and 6x His tag; also called hTNFα; TFNα; source: Expi293, transient transfection, purified (Ni-NTA)
Nature of the test: ELISA; 100-200 ng/well antigen coated in PBS, sdAbs added in 3-fold serial dilutions, 1.5 h at 37 °C, detected with HRP anti-flag antibody. As to conditions: both partners purified. A general note: In an ELISA, binding on a coated surface is turned into a signal by an enzyme label.

T1 sequence (P01375 77-233): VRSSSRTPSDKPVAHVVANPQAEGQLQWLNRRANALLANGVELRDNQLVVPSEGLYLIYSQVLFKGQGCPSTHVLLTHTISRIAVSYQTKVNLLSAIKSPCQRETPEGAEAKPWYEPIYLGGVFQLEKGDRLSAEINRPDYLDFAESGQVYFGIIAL

B1: VHH3-M1 (VHH)
VHH: QVQLQDSGGGLVQAGGSLRLSCAVSGRTFSAHSVYTMGWFRQAPGKEREFVARIYWSSANTYYADSVKGRFTISRDNAKNTVDLQMNSLRPEDTAVYYCAARDGIPTSRTVGSYNYWGQGTQVTVSS
notes: redesigned variant of VHH3 (carries L90Q, IMGT numbering); Designed by TFDesign-sdAb; pComb3x with N-terminal OmpA signal peptide; also called VHH-M1; source: E. coli HB2151, purified (Ni-NTA or Protein A resin); also in lysis supernatant; not shown: FLAG, C-terminal, kept
Take B1: the binding result is given as “binds”.

B2: VHH3-M3 (VHH)
VHH: QVQLQDSGGGLVQAGGSLRLSCAVSGRTFSAHSVYTMGWFRQAPGKEREFVARIYWSSANTYYADSVKGRFTISRDNAKNTVYLQMNSLRPEDTAVYYCAARDGIPTSRTVGSYNYWGQGTQVTVSS
notes: redesigned variant of VHH3 (carries L90Q; differs from VHH3-M1 only at position 88, IMGT numbering); Designed by TFDesign-sdAb; pComb3x with N-terminal OmpA signal peptide; also called VHH-M3; source: E. coli HB2151, purified (Ni-NTA or Protein A resin); also in lysis supernatant; not shown: FLAG, C-terminal, kept
Regarding B2, the binding result is on record as “binds”.
